Among the targets are HLA-A*33:01; HLA-A*68:01; HLA-A*11:01; HLA-A*31:01; HLA-A*03:01.
Assay in all cases: IEDB peptide-MHC binding, purified MHC/competitive/radioactivity; filed as Kd, often an IC50 or EC50 that approximates it; ≥ and ≤ were set here for values at or beyond the usual limits of such assays
[1] abbreviates: source organism: Vaccinia virus WR.
[2] abbreviates: source organism: SARS coronavirus Tor2.
Where [3] appears, read: source organism: Mammarenavirus lassaense.
Setting [4] is: source organism: Dengue virus 3 Martinique/1243/1999.
Setting [5] is: source organism: Lassa virus Josiah.
Where [6] appears, read: source organism: Mammarenavirus guanaritoense.
Setting [7] is: source organism: Dengue virus 2 Jamaica/1409/1983.
Setting [8] is: source organism: Dengue virus 4 Philippines/H241/1956.
[9] abbreviates: source organism: Dengue virus 1 Brazil/97-11/1997.
Where [10] appears, read: source organism: Dengue virus 1 Nauru/West Pac/1974.

Where only a bound is given, the exact number is not on record here.

In general, Kd refers to the equilibrium constant for the complex coming apart. As to IISIRPRVTK, the Kd in the assay with HLA-A*33:01 (setting [1]) worked out at 5690 nM; in the assay with HLA-A*68:01 (setting [1]), 180 nM; in the assay with HLA-A*11:01 (setting [1]) it was 125 nM; with HLA-A*31:01 (setting [1]), 425 nM; with HLA-A*03:01 (setting [1]), 55.5 nM.

On to VSTGESSILR, for which the Kd with HLA-A*33:01 (setting [1]) is 3230 nM; with HLA-A*68:01 (setting [1]), 119 nM; with HLA-A*11:01 (setting [1]), 204 nM; with HLA-A*31:01 (setting [1]) it was 1390 nM; with HLA-A*03:01 (setting [1]) it was ≥ 24900 nM.

Regarding PAGRPNYVK, the Kd with HLA-A*33:01 (setting [1]) is 7210 nM; with HLA-A*68:01 (setting [1]), 15900 nM; in the assay with HLA-A*11:01 (setting [1]), 210 nM; with HLA-A*31:01 (setting [1]), 12 nM; with HLA-A*03:01 (setting [1]) it was ≥ 31900 nM.

As for QIGEYTFEK, the Kd with HLA-A*33:01 (setting [2]) was ≥ 22200 nM; with HLA-A*68:01 (setting [2]), 589 nM; with HLA-A*11:01 (setting [2]), 9.93 nM; with HLA-A*31:01 (setting [2]), 1920 nM; with HLA-A*03:01 (setting [2]), 48.7 nM.

ENAVWDQCK: the Kd was ≥ 38000 nM with HLA-A*33:01 (setting [3]); 1480 nM with HLA-A*68:01 (setting [3]); ≥ 77900 nM with HLA-A*11:01 (setting [3]); ≥ 77900 nM with HLA-A*31:01 (setting [3]); ≥ 78000 nM in the assay with HLA-A*03:01 (setting [3]).

With HIIDSFNIR, the Kd came to 732 nM in the assay with HLA-A*33:01 (setting [1]); 0.448 nM in the assay with HLA-A*68:01 (setting [1]); 149 nM in the assay with HLA-A*11:01 (setting [1]); 1.12 nM with HLA-A*31:01 (setting [1]); 1680 nM with HLA-A*03:01 (setting [1]).

Take RMIVGKNER: the Kd in the assay with HLA-A*31:01 (setting [4]) was found to be 16.1 nM.

In the case of RASLIPDATH, the Kd in the assay with HLA-A*33:01 (setting [5]) was ≥ 50700 nM; with HLA-A*68:01 (setting [5]), 19600 nM; with HLA-A*11:01 (setting [5]), ≥ 59100 nM; in the assay with HLA-A*31:01 (setting [5]), 1980 nM.

Turning to KCSDHYLCLR, the Kd with HLA-A*33:01 (setting [6]) is 5780 nM; in the assay with HLA-A*68:01 (setting [6]) it was ≥ 70100 nM; in the assay with HLA-A*11:01 (setting [6]) it was ≥ 44800 nM; with HLA-A*31:01 (setting [6]) it was 140 nM; in the assay with HLA-A*03:01 (setting [6]), 4760 nM.

On to FLWTQSLRR, for which the dissociation constant Kd with HLA-A*33:01 (setting [5]) came out at 2900 nM; in the assay with HLA-A*68:01 (setting [5]) it was 320 nM; in the assay with HLA-A*11:01 (setting [5]), 723 nM; with HLA-A*31:01 (setting [5]), 2050 nM; with HLA-A*03:01 (setting [5]), 40.7 nM.

Consider RMCTREEFTR, for which the figures for the Kd in the assay with HLA-A*33:01 (setting [7]) and with HLA-A*31:01 (setting [7]) were 654 nM and 5.72 nM, respectively.

As for VVKDDPDHY, the Kd in the assay with HLA-A*33:01 (setting [1]) is ≥ 77700 nM; in the assay with HLA-A*68:01 (setting [1]) it was 8050 nM; with HLA-A*11:01 (setting [1]) it was 1800 nM; with HLA-A*31:01 (setting [1]), ≥ 77900 nM; with HLA-A*03:01 (setting [1]), ≥ 78000 nM.

In the case of VTSSGVIYK, the Kd with HLA-A*33:01 (source organism: Variola virus) is ≥ 70000 nM; with HLA-A*68:01 (source organism: Variola virus), ≥ 70100 nM; in the assay with HLA-A*11:01 (source organism: Variola virus), ≥ 69700 nM; in the assay with HLA-A*31:01 (source organism: Variola virus), ≥ 70000 nM; in the assay with HLA-A*03:01 (source organism: Variola virus), ≥ 70000 nM.

As for VVRPPFNMLK, the Kd with HLA-A*11:01 (setting [8]) amounted to 70.9 nM; with HLA-A*03:01 (setting [8]), 4.44 nM.

In the case of KSIENKHQR, the Kd came out at 1080 nM with HLA-A*33:01 (setting [1]); 100 nM with HLA-A*68:01 (setting [1]); 29.4 nM in the assay with HLA-A*11:01 (setting [1]); 1.55 nM with HLA-A*31:01 (setting [1]); 12600 nM with HLA-A*03:01 (setting [1]).

Turning to GVRVRVAVNK, the Kd in the assay with HLA-A*33:01 (setting [1]) was ≥ 70000 nM; with HLA-A*68:01 (setting [1]), 2190 nM; with HLA-A*11:01 (setting [1]) it was 840 nM; in the assay with HLA-A*31:01 (setting [1]), 12100 nM; with HLA-A*03:01 (setting [1]) it was 52.2 nM.

With TVENNIDFLK, the Kd worked out at 17900 nM in the assay with HLA-A*33:01 (setting [1]); 19.7 nM with HLA-A*68:01 (setting [1]); 69.9 nM with HLA-A*11:01 (setting [1]); 8650 nM in the assay with HLA-A*31:01 (setting [1]); 2650 nM with HLA-A*03:01 (setting [1]).

In the case of KFAEESYTY, the Kd in the assay with HLA-A*33:01 (setting [1]) is ≥ 77700 nM; with HLA-A*68:01 (setting [1]) it was ≥ 38700 nM; with HLA-A*11:01 (setting [1]) it was 16500 nM; with HLA-A*31:01 (setting [1]), 13500 nM; in the assay with HLA-A*03:01 (setting [1]), ≥ 78000 nM.

Take DILSIIDAK: the Kd in the assay with HLA-A*33:01 (setting [1]) is 896 nM; with HLA-A*68:01 (setting [1]), 49.7 nM; in the assay with HLA-A*11:01 (setting [1]) it was 428 nM; with HLA-A*31:01 (setting [1]) it was ≥ 77900 nM; with HLA-A*03:01 (setting [1]), 876 nM.

Consider CMTSCCSCLK, for which the Kd with HLA-A*33:01 (setting [2]) is 1860 nM; with HLA-A*68:01 (setting [2]), 40.2 nM; with HLA-A*11:01 (setting [2]), 80.8 nM; with HLA-A*31:01 (setting [2]) it was 800 nM; with HLA-A*03:01 (setting [2]), 62.7 nM.

On to LITGNMSFR, for which the Kd with HLA-A*33:01 (setting [7]) turned out to be 1310 nM; with HLA-A*68:01 (setting [7]), 26.2 nM.

Consider DSYTQMCDHR, for which, in the assay with HLA-A*33:01 (setting [9]), the Kd is 335 nM.

As to VTLFFLSGR, the Kd amounted to 98 nM with HLA-A*33:01 (setting [10]) and 7490 nM with HLA-A*31:01 (setting [10]).

Regarding TTILDVDLR, in the assay with HLA-A*68:01 (setting [8]), the dissociation constant Kd worked out at 35.8 nM.

Take TAKLRWFVER: the results for the Kd with HLA-A*33:01 (setting [9]) and with HLA-A*31:01 (setting [9]) were 34.2 nM and ≥ 28400 nM, respectively.

For the sequence STYGWNIVK, the Kd with HLA-A*03:01 (setting [4]) amounted to 4.75 nM.

Regarding LTTLSRTSK, in the assay with HLA-A*11:01 (setting [7]), the Kd was found to be 214 nM.

Take KLRPRWLDAR: the Kd in the assay with HLA-A*31:01 (setting [9]) amounted to 0.403 nM.

In the case of LIKNAQTPR, the Kd with HLA-A*31:01 (setting [8]) was determined as 13.6 nM.

KKKTPRMCTR: the Kd in the assay with HLA-A*31:01 (setting [7]) is 768 nM.

With IIPALFEPER, the dissociation constant (Kd) with HLA-A*68:01 (setting [9]) stood at 76.7 nM.

Regarding LLLTSSQQK, the Kd with HLA-A*03:01 (setting [7]) was 15.5 nM.

For DFWKLVDRER, the Kd with HLA-A*33:01 (setting [4]) was determined as 1.51 nM.

In the case of KTSSVARLR, in the assay with HLA-A*11:01 (source organism: Lymphocytic choriomeningitis virus (strain Armstrong)), the Kd was 72.8 nM.

On to EWLWRTLGR, for which the Kd with HLA-A*33:01 (setting [4]) worked out at 8.26 nM.

Take VVYDAKFEK: the Kd with HLA-A*11:01 (setting [9]) turned out to be 42.4 nM; with HLA-A*03:01 (setting [9]), 7.01 nM.

Values taken from the Immune Epitope Database (IEDB).
